Test results published in patent US20250034260A1 (Sanofi, published 2025).

B1: T-0263-00_TP069 (Fc fusion)
chain 1: DKTHTCPPCPAPELLGGPSVFLFPPKPKDTLYITREPEVTCVVVDVSHEDPEVKFNWYVDGVEVHNAKTKPREEQYNSTYRVVSVLTVLHQDWLNGKEYKCKVSNKALPAPIEKTISKAKGQPREPQVYTLPPCRDELTKNQVSLWCLVKGFYPSDIAVEWESNGQPENNYKTTPPVLDSDGSFFLYSKLTVDKSRWQQGNVFSCSVMHEALKFHYTQKSLSLSPGGGGGSGGGGSGGGGSGGGGSGGGGSGGGGSGGGGSEVQLVESGGGVVQPGGSLRLSCAASGFTFSSYAMYWVRQAPGKGLEWVSAISSGGGSTDYADSVKGRFTISRDNSKNTLYLQMNSLRPEDTALYYCAADTLYTSLTSYSYWGQGTLVTVSS
chain 2: DKTHTCPPCPAPELLGGPSVFLFPPKPKDTLYITREPEVTCVVVDVSHEDPEVKFNWYVDGVEVHNAKTKPREEQYNSTYRVVSVLTVLHQDWLNGKEYKCKVSNKALPAPIEKTISKAKGQPREPQVCTLPPSRDELTKNQVSLSCAVKGFYPSDIAVEWESNGQPENNYKTTPPVLDSDGSFFLVSKLTVDKSRWQQGNVFSCSVMHEALKFHYTQKSLSLSPG
notes: also called C-terminal fusion construct; human IgG1 Fc YTE-KF (knob)-35GS-T0263018B11(W100cS) + Fc YTE-KF (hole)
B2: T-0263-00_TP067 (Fc fusion)
chain 1: DVQLVESGGGVVQPGGSLRLSCAASGFTFSSYAMYWVRQAPGKGLEWVSAISSGGGSTDYADSVKGRFTISRDNSKNTLYLQMNSLRPEDTALYYCAADTLYTSLTSYSYWGQGTLVTVSSDKTHTCPPCPAPELLGGPSVFLFPPKPKDTLYITREPEVTCVVVDVSHEDPEVKFNWYVDGVEVHNAKTKPREEQYNSTYRVVSVLTVLHQDWLNGKEYKCKVSNKALPAPIEKTISKAKGQPREPQVYTLPPCRDELTKNQVSLWCLVKGFYPSDIAVEWESNGQPENNYKTTPPVLDSDGSFFLYSKLTVDKSRWQQGNVFSCSVMHEALKFHYTQKSLSLSPG
chain 2: B1 chain 2
notes: also called N-terminal fusion construct; T0263018B11(E1D,W100cS)-human IgG1 Fc YTE-KF (knob) + Fc YTE-KF (hole)
B3: T-0263-00_TP061 (other)
chain: DKTHTCPPCPAPELLGGPSVFLFPPKPKDTLYITREPEVTCVVVDVSHEDPEVKFNWYVDGVEVHNAKTKPREEQYNSTYRVVSVLTVLHQDWLNGKEYKCKVSNKALPAPIEKTISKAKGQPREPQVYTLPPSRDELTKNQVSLTCLVKGFYPSDIAVEWESNGQPENNYKTTPPVLDSDGSFFLYSKLTVDKSRWQQGNVFSCSVMHEALKFHYTQKSLSLSPGK
notes: Symmetrical (homodimeric) Fc-only control made without knob-in-hole; also called control FcRn antagonist; IgG1 Fc YTE-KF Fc domain without Nanobody VHH

Experiments:
[1] = molecular target: T1, human FcRn (biotinylated) (human, UniProt P61769 21-119, biotinylated (site not stated)); test: SPR, Biacore 8K+, biotinylated human FcRn captured on SA chip, pH 6.0, bivalent analyte fit
T1 construct: also called neonatal Fc receptor; FcRP
Method: (§1) The Nanobody® VHH-Fc protein constructs (FcRn antagonists) were characterized by affinity determination for human FcRn and cyno FcRn at pH 6.0 and pH 7.4 on the Biacore 8K+ instrument. For affinity measurements, ^{˜}200-400 of biotinylated human or cyno FcRn was captured on a Series S Sensor Chip SA. The Nanobody® VHH-Fc fusion proteins were injected at 9 different concentrations (between 0.5 and 1500 nM) and allowed to associate for 120 s at 30 μL/min and dissociate for 600 s.
(§2) The data could not be fitted with the 1:1 Langmuir dissociation model, and a Bivalent Analyte fitting model was used instead due to biphasic on-rate behaviour observed during analysis. The FcRn affinities obtained for TP061 were in line with the published data (see, e.g., Vaccaro, C., Zhou, J., Ober, R. et al., “Engineering the Fc region of immunoglobulin G to modulate in vivo antibody levels”, Nat. Biotechnol. 23, 1283-1288 (2005)).

cyno FcRn (biotinylated) [2] = molecular target: T2, cyno FcRn (biotinylated) (cynomolgus, UniProt Q8SPV9 24-297; Q8SPW0 21-119, limits assumed, biotinylated (site not stated)); test: SPR, Biacore 8K+, biotinylated cyno FcRn captured on SA chip, pH 6.0, bivalent analyte fit
T2 construct: also called Cynomolgus FcRn; cynomolgus monkey FcRn
Method: as §1, §2

[3] = molecular target: T1, human FcRn (biotinylated); test: SPR, Biacore 8K+, biotinylated human FcRn captured on SA chip, pH 7.4, bivalent analyte fit
Method: as §1, §2

cyno FcRn (biotinylated) [4] = molecular target: T2, cyno FcRn (biotinylated); test: SPR, Biacore 8K+, biotinylated cyno FcRn captured on SA chip, pH 7.4, bivalent analyte fit
Method: as §1, §2

cyno FcRn (biotinylated) [5] = molecular target: T2, cyno FcRn (biotinylated); test: SPR, Biacore 8K+, biotinylated cyno FcRn captured on SA chip, pH 6.0, bivalent analyte fit; pH 6.0
Method: as §1, §2

[6] = molecular target: T1, human FcRn (biotinylated); test: SPR, Biacore 8K+, biotinylated human FcRn captured on SA chip, pH 6.0, bivalent analyte fit; pH 6.0
Method: as §1, §2

T1 sequence (chain, as listed by the source limits assumed, chain 1 of 2): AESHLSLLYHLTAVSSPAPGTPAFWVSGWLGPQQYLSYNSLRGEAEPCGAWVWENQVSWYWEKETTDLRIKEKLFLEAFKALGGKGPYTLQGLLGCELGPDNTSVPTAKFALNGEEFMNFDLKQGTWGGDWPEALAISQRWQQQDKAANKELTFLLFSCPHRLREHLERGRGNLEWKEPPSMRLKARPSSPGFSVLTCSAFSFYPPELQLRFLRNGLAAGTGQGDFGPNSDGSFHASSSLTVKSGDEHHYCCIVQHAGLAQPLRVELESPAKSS
T1 sequence (P61769 21-119 limits assumed, chain 2 of 2): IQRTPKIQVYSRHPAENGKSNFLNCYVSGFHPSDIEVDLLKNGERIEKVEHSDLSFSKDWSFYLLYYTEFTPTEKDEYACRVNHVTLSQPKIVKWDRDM
T2 sequence (Q8SPV9 24-297 limits assumed, chain 1 of 2): as the sequence (chain, as listed by the source limits assumed, chain 1 of 2) above, with N39D, E44Q, G99S, S189G, S190N, L217M, S269T counted along it
T2 sequence (Q8SPW0 21-119 limits assumed, chain 2 of 2): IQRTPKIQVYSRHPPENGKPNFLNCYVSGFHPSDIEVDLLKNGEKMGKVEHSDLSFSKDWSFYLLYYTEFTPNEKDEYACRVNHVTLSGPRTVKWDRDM

| Binder | Kd [1] | Kd (cyno FcRn (biotinylated) [2]) | Kd [3] | Kd (cyno FcRn (biotinylated) [4]) | Kd (cyno FcRn (biotinylated) [5]) | Kd [6] |
| --- | --- | --- | --- | --- | --- | --- |
| B1 | 0.873 nM | 0.683 nM | 14 nM | 12.5 nM |  |  |
| B2 | 0.692 nM | 0.541 nM | 10.3 nM | 11.2 nM |  |  |
| B3 |  |  |  |  | 27.5 nM | 17.2 nM |
